Data taken from PMC13544220, “Glycemic and bodyweight effects of GIPR coding variation reflect differences in surface expression and intrinsic functional impairment” (Science Advances, 2026).
Changes are numbered by the printed parent chain.

B1: p.Arg131Ser (protein, UniProt P48546 22-466, looked up, variant R131S)
Gastric inhibitory …: RAETGSKGQTAGELYQRWERYRRECQETLAAAEPPSGLACNGSFDMYVCWDYAAPNATARASCPWYLPWHHHVAAGFVLRQCGSDGQWGLWRDHTQCENPEKNEAFLDQSLILERLQVMYTVGYSLSLATLLLALLILSLFRRLHCTRNYIHINLFTSFMLRAAAILSRDRLLPRPGPYLGDQALALWNQALAACRTAQIVTQYCVGANYTWLLVEGVYLHSLLVLVGGSEEGHFRYYLLLGWGAPALFVIPWVIVRYLYENTQCWERNEVKAIWWIIRTPILMTILINFLIFIRILGILLSKLRTRQMRCRDYRLRLARSTLTLVPLLGVHEVVFAPVTEEQARGALRFAKLGFEIFLSSFQGFLVSVLYCFINKEVQSEIRRGWHHCRLRRSLGEEQRQLPERAFRALPSGSGPGEVPTSRGLSSGTLPGPGNEASRELESYC
B2: p.Gly438Ser (protein, UniProt P48546 22-466, looked up, variant G438S)
Gastric inhibitory …: B1 Gastric inhibitory … with S110R, G417S
B3: p.Arg336Pro (protein, UniProt P48546 22-466, looked up, variant R336P)
Gastric inhibitory …: B1 Gastric inhibitory … with S110R, R315P
B4: p.Glu463Gln (protein, UniProt P48546 22-466, looked up, variant E463Q)
Gastric inhibitory …: B1 Gastric inhibitory … with S110R, E442Q
B5: p.Ala268Val (protein, UniProt P48546 22-466, looked up, variant A268V)
Gastric inhibitory …: B1 Gastric inhibitory … with S110R, A247V
B6: p.Asp66Gly (protein, UniProt P48546 22-466, looked up, variant D66G)
Gastric inhibitory …: B1 Gastric inhibitory … with D45G, S110R
B7: p.Arg404His (protein, UniProt P48546 22-466, looked up, variant R404H)
Gastric inhibitory …: B1 Gastric inhibitory … with S110R, R383H
B8: p.Ser447Thr (protein, UniProt P48546 22-466, looked up, variant S447T)
Gastric inhibitory …: B1 Gastric inhibitory … with S110R, S426T
B9: p.Glu288Gly (protein, UniProt P48546 22-466, looked up, variant E288G)
Gastric inhibitory …: B1 Gastric inhibitory … with S110R, E267G
B10: p.Glu354Gln (protein, UniProt P48546 22-466, looked up, variant E354Q)
Gastric inhibitory …: B1 Gastric inhibitory … with S110R, E333Q
B11: p.Leu100Phe (protein, UniProt P48546 22-466, looked up, variant L100F)
Gastric inhibitory …: B1 Gastric inhibitory … with L79F, S110R
B12: p.Ser415Ile (protein, UniProt P48546 22-466, looked up, variant S415I)
Gastric inhibitory …: B1 Gastric inhibitory … with S110R, S394I
B13: p.Arg183Gln (protein, UniProt P48546 22-466, looked up, variant R183Q)
Gastric inhibitory …: B1 Gastric inhibitory … with S110R, R162Q
B14: p.Arg190Gln (protein, UniProt P48546 22-466, looked up, variant R190Q)
Gastric inhibitory …: B1 Gastric inhibitory … with S110R, R169Q
B15: p.Arg341Pro (protein, UniProt P48546 22-466, looked up, variant R341P)
Gastric inhibitory …: B1 Gastric inhibitory … with S110R, R320P
B16: p.Arg300Trp (protein, UniProt P48546 22-466, looked up, variant R300W)
Gastric inhibitory …: B1 Gastric inhibitory … with S110R, R279W
B17: p.Leu262His (protein, UniProt P48546 22-466, looked up, variant L262H)
Gastric inhibitory …: B1 Gastric inhibitory … with S110R, L241H
B18: p.Leu262Val (protein, UniProt P48546 22-466, looked up, variant L262V)
Gastric inhibitory …: B1 Gastric inhibitory … with S110R, L241V
B19: p.Ser64Ala (protein, UniProt P48546 22-466, looked up, variant S64A)
Gastric inhibitory …: B1 Gastric inhibitory … with S43A, S110R
B20: p.Ile378Met (protein, UniProt P48546 22-466, looked up, variant I378M)
Gastric inhibitory …: B1 Gastric inhibitory … with S110R, I357M
B21: p.Thr116Arg (protein, UniProt P48546 22-466, looked up, variant T116R)
Gastric inhibitory …: B1 Gastric inhibitory … with T95R, S110R
B22: p.Arg217Leu (protein, UniProt P48546 22-466, looked up, variant R217L)
Gastric inhibitory …: B1 Gastric inhibitory … with S110R, R196L
B23: p.Arg136Trp (protein, UniProt P48546 22-466, looked up, variant R136W)
Gastric inhibitory …: B1 Gastric inhibitory … with S110R, R115W
B24: p.Arg101His (protein, UniProt P48546 22-466, looked up, variant R101H)
Gastric inhibitory …: B1 Gastric inhibitory … with R80H, S110R
B25: p.Ile403Val (protein, UniProt P48546 22-466, looked up, variant I403V)
Gastric inhibitory …: B1 Gastric inhibitory … with S110R, I382V
B26: p.Ala207Val (protein, UniProt P48546 22-466, looked up, variant A207V)
Gastric inhibitory …: B1 Gastric inhibitory … with S110R, A186V
B27: p.Glu252Asp (protein, UniProt P48546 22-466, looked up, variant E252D)
Gastric inhibitory …: B1 Gastric inhibitory … with S110R, E231D

Experiments:
[1] = test system: wild-type and variant SNAP-GIPR; assay: Surface SNAP-GIPR expression (SNAP-tag labelling) in AD293 cells; assay type: cell-based, human; conditions: level of surface expression, based on in vitro functional data in AD293 cells; summary classification
Protocol: Twenty-four hours before the experiment, AD293 or INS-1 cells were reverse transfected with GIPR variant or wild-type plasmids using Lipofectamine 2000 in 96-well, clear-bottom, black microplates precoated with poly-D-lysine. All variants were tested in parallel on each occasion to control for transfection efficiency differences between experiments. Cells were then labeled using the cell-impermeant probe SNAP-Surface Alexa Fluor 647 (500 nM, New England Biolabs, USA) for 10 min at room temperature to label only surface GIPR. […] Several fields of view (FOVs) were acquired within each well using a 20X, 0.75–numerical aperture (NA) air objective. Surface GIPR fluorescence was quantified after flat-field correction using BaSiC ([72]) and segmenting using Phantast ([73]), which generates a mask based on the phase contrast images to demarcate cell versus noncell. Wide-field imaging of the surface-specific labeling achieved by SNAP-Surface probes means that surface expression can be established from whole-cell fluorescence, after subtracting nonspecific fluorescence from a separate well containing nontransfected cells processed in parallel from the same experiment. Data were normalized by dividing by the average specific signal across each experiment, or by the wild-type value, as indicated in the figure legends.

[2] = test system: wild-type and variant SNAP-GIPR; assay: Single-concentration GIP cAMP response by HTRF in AD293 cells; assay type: cell-based, human; conditions: cAMP responses to 100 pM GIP in AD293 cells; summary classification (decrease/neutral/increase)
Protocol: All variants were tested in parallel on each occasion to control for transfection efficiency differences between experiments.

Molecule | Surface expression [1] | cAMP response [2]
B1 | neutral | decrease
B2 | neutral | neutral
B3 | neutral | neutral
B4 | neutral | neutral
B5 | neutral | increase
B6 | decrease | decrease
B7 | decrease | decrease
B8 | neutral | neutral
B9 | decrease | decrease
B10 | decrease | increase
B11 | neutral | neutral
B12 | neutral | neutral
B13 | decrease | decrease
B14 | decrease | decrease
B15 | decrease | decrease
B16 | decrease | decrease
B17 | decrease | decrease
B18 | neutral | neutral
B19 | decrease | decrease
B20 | increase | neutral
B21 | neutral | decrease
B22 | decrease | decrease
B23 | neutral | decrease
B24 | decrease | decrease
B25 | neutral | neutral
B26 | neutral | neutral
B27 | neutral | increase
